Values quoted from earlier work in article PMC8277102.

Target: EmrA (Escherichia coli) (UniProt P27303)
Assay: SPR

EmrA (from UniProt P27303)
Kd: 1870 nM
